{"source": "patent US20180051033", "about": "“INHIBITORS OF LATE SV40 FACTOR (LSF) AS CANCER CHEMOTHERAPEUTICS” (TRUSTEES OF BOSTON UNIVERSITY, published 2018)", "binders": {"B1": {"name": "LSF EMSA site (dsDNA)", "DNA 1": "TGGCTGGTTATGGCTGGTCAGACTAG", "DNA 2": "CTAGTCTGACCAGCCATAACCAGCCA"}}, "target": "T1, LSF (TFCP2) (Homo sapiens, UniProt Q12800 SEQ:1-502)", "T1 sequence": "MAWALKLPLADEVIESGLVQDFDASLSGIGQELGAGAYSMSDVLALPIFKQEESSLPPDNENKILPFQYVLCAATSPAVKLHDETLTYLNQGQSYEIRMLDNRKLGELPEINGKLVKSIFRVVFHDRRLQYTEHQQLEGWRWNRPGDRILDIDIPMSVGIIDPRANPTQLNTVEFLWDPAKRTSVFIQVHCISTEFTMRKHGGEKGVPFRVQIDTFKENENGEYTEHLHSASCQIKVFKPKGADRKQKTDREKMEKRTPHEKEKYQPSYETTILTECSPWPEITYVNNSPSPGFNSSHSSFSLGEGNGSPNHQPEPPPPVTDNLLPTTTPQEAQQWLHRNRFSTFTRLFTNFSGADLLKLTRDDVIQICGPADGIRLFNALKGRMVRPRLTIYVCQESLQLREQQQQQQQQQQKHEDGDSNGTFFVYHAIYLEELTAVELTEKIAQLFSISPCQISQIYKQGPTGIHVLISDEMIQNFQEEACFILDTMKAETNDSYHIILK", "test": "EMSA; 40 mM KCl, 15 mM HEPES pH 7.9, 1 mM EDTA, 0.5 mM DTT, 5% glycerol, poly d(I-C), 30 C; FQI1 enhances binding at low and inhibits at higher concentration", "conditions": "chain copies: 4 stated (tetrameric on DNA); label: 32P (radiolabelled)", "procedure": "LSF was translated in vitro as previously described¹⁶ for use in EMSAs. Protein was preincubated with inhibitor or DMSO and then incubated with 0.5 μg poly d(I-C) for 15 min at 4° C. in 40 mM KCl, 15 mM HEPES pH 7.9, 1 mM EDTA, 0.5 mM DTT, 5% glycerol. Finally, radiolabelled double-stranded DNA ([…]—SEQ ID NO: 5- and its complement) were added for a 30-min incubation at 30° C. Results were visualized using a PhosphorImager and quantified using ImageQuant software.", "data": [{"binder": "B1", "values": [{"measurement": "binding result", "result": "binds"}]}]}
